# Measured values taken from US20160003835, “APTAMERS AND USES THEREOF” (CARIS LIFE SCIENCES SWITZERLAND HOLDINGS S.A.R.L., published 2016).
# T1: EpCAM (UniProt P16422 P16422:24-265)
# T1 sequence: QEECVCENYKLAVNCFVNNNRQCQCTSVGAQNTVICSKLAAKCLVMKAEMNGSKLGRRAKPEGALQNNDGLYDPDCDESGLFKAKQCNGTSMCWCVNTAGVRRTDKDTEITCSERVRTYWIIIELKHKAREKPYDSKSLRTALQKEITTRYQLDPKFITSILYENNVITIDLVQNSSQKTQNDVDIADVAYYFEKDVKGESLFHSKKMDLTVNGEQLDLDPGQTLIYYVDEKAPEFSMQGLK
# Tests used:
# EpCAM [1] = biological target: T1, EpCAM; experiment: SPR; immobilized biotinylated aptamer, HBS-EP+ buffer, global fit; conditions: label: biotin
# EpCAM [2] = biological target: T1, EpCAM; experiment: as above; conditions: label: biotin; remark: listed apart in the source
# Method: FIG. 4 illustrates results from a binding assay showing the binding affinity of an exemplary aptamer (Aptamer ID BTX176881 (SEQ ID NO. 98883)) to the target EpCAM protein at various target concentrations. The aptamer to be tested is fixed to a substrate using a biotin tail and is incubated with various concentrations of target (125, 250 and 500 nM). The test is performed on a surface plasmon resonance machine (SPR). The SPR machine detects association and disassociation of the aptamer and the target. Target is applied until the association and disassociation events are equal, resulting in a plateau of the curve. The equations describing the curve at each concentration can then be used to calculate the KD of the aptamer (see Table 5).
# The Biacore 200 control software is programmed with the following conditions: Solution: HBS-EP+Buffer; Number of cycles: 3; Contact time: 120s; Flow rate: 30 μl/min; Dissociation time: 300s; Solution: Glycine-HCl pH 2.5; Contact time: 120s; Flow rate: 20 μl/min; Stabilization period: Os. The binding affinities of these aptamers are then measured using the SPR assay above, or an alternate in vitro assay assessing the aptamer for a desired function.
# PSMA (FOLH1/NAALADase I) = PSMA (FOLH1/NAALADase I) (UniProt Q04609 Q04609:44-750); experiment: ELONA; ELISA against recombinant PSMA, values only in figure; conditions: label: biotin
# EpCAM [3] = biological target: T1, EpCAM; experiment: ELONA; standard ELISA plate; conditions: tags: Fc fusion; label: biotin
# EpCAM [4] = biological target: T1, EpCAM; experiment: bead fluorescence assay, anti-His beads; improved by 1 mM MgCl2 in 25 mM HEPES; lower affinity than Aptamer 4; conditions: tags: His tag; label: biotin / SA-PE
# Method: Purified CAR003 aptamer was tested for binding to recombinant EPCAM protein with a polyhistidine tag (“His tagged”) using the following internally developed assay. Anti-His tag conjugated beads were mixed with EPCAM-His tagged protein. The aptamer to be tested was labeled with streptavidin-phycoerythrin (SA-PE). The EpCAM-beads and SA-PE labeled aptamers were mixed. Binding was determined as median flourescent value in a bead assay as described herein. MFI values (FIG. 20E-F) increase with increased binding of the SA-PE labeled aptamer to the recombinant EpCAM. FIGS. 20E-F illustrate binding of CAR003 to EPCAM protein in 25 mM HEPES with PBS-BN (PBS, 1% BSA, 0.05% Azide, pH 7.4) (FIG. 20E) or in 25 mM HEPES with 1 mM MgCl₂ (FIG. 20F). EPCAM aptamer Aptamer 4 (see above) was used for comparison. As shown in the figures, CAR003 pool 3 more efficiently binds its target in the presence of MgCl₂ (FIG. 20F) than in the presence of BSA (FIG. 20E).
# CAR003 affinity to EpCAM in the bead assay environment was assessed in the same assay as above with aptamer titrated across a constant input of antigen. FIG. 20I illustrates titration of aptamers against EPCAM recombinant protein (constant input 5 μg).
# Chain of PSMA (FOLH1/NAALADase I) (Q04609 44-750, one chain of several): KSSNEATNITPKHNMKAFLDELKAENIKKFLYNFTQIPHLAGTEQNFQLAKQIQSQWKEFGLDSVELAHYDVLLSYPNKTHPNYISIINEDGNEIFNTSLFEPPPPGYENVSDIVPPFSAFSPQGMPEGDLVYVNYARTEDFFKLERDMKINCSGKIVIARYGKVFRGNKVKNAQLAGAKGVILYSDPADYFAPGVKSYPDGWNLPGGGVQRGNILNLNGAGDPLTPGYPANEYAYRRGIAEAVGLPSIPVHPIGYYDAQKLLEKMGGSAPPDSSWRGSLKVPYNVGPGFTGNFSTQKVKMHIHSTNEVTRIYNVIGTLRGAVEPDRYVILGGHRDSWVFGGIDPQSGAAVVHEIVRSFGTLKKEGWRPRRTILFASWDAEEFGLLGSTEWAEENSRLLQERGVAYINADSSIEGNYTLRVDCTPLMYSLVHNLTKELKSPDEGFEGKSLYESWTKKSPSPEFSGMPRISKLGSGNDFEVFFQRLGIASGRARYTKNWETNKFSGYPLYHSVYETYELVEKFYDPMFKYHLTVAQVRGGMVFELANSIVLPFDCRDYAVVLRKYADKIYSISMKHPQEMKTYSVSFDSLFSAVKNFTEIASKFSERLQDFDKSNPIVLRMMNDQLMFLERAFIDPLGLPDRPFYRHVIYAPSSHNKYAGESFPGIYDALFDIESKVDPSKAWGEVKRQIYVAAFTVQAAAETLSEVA
binder,measurement,setting,value
"CCCCCCGAATCACATGACTTGGGCGGGGGTCG (ssDNA, 3' tail of 6 thymines and biotin) [Aptamer 4]",Kd,EpCAM [1],10.1 nM
"CCGCGCAGATATACAACGTACCTCTGTGCGCA (ssDNA, 3' tail of 6 thymines and biotin) [BTX176881]",Kd,EpCAM [2],8.4 nM
"CAR050 (ssDNA, 5' biotin) DNA: ACTAAGCCACCGTGTCCACCCCCCTCTGTCTCTTGTTTCTCTTTTCTATGCTGCGTCACTCTGGAT",binding result,PSMA (FOLH1/NAALADase I),binds
"CAR051 (ssDNA, 5' biotin) DNA: ACTAAGCCACCGTGTCCAGCCCTATTCCCTCGCTTTCTCCCCTTTTGTTGCTGCGTCACTCTGGAT",binding result,PSMA (FOLH1/NAALADase I),binds
"CAR016 (ssDNA, 5' biotin) DNA: ACTAAGCCACCGTGTCCAACGTAAGTATATCTGTACAATGCTGCGTCACTCTGGAT",binding result,EpCAM [3],binds
"CTGTGAGGCGTACTGCGGTGAGCCTCTCATTA (ssDNA, 3' tail of 6 thymines and biotin) [BTX187269]",Kd,EpCAM [1],7.12 nM
"CAR003 (ssDNA, 3' biotin (CAR003.2_3'-B, same bases as SEQ 230823)) DNA: ATCCAGAGTGACGCAGCAGTCTTTTCTGATGGACACGTGGTGGTCTAGTATCTGGACACGGTGGCTTAGT",binding result,EpCAM [4],binds
